Measurements reported in US20210186964.

Biological target: Ub-AMC (ubiquitin-AMC), P0CG47
Sequence (P0CG47 whole entry, looked up): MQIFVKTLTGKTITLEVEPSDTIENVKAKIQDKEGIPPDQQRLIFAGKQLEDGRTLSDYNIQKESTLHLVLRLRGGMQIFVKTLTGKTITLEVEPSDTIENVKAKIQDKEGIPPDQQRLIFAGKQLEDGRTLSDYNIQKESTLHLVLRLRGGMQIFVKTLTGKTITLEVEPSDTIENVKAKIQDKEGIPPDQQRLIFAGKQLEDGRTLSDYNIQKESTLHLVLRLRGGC

B1: USP1/UAF1 complex (WT-USP1/UAF1) (protein)
chain 1: MPGVIPSESNGLSRGSPSKKNRLSLKFFQKKETKRALDFTDSQENEEKASEYRASEIDQVVPAAQSSPINCEKRENLLPFVGLNNLGNTCYLNSILQVLYFCPGFKSGVKHLFNIISRKKEALKDEANQKDKGNCKEDSLASYELICSLQSLIISVEQLQASFLLNPEKYTDELATQPRRLLNTLRELNPMYEGYLQHDAQEVLQCILGNIQETCQLLKKEEVKNVAELPTKVEEIPHPKEEMNGINSIEMDSMRHSEDFKEKLPKGNGKRKSDTEFGNMKKKVKLSKEHQSLEENQRQTRSKRKATSDTLESPPKIIPKYISENESPRPSQKKSRVKINWLKSATKQPSILSKFCSLGKITTNQGVKGQSKENECDPEEDLGKCESDNTTNGCGLESPGNTVTPVNVNEVKPINKGEEQIGFELVEKLFQGQLVLRTRCLECESLTERREDFQDISVPVQEDELSKVEESSEISPEPKTEMKTLRWAISQFASVERIVGEDKYFCENCHHYTEAERSLLFDKMPEVITIHLKCFAASGLEFDCYGGGLSKINTPLLTPLKLSLEEWSTKPTNDSYGLFAVVMHSGITISSGHYTASVKVTDLNSLELDKGNFVVDQMCEIGKPEPLNEEEARGVVENYNDEEVSIRVGGNTQPSKVLNKKNVEAIGLLGGQKSKADYELYNKASNPDKVASTAFAENRNSETSDTTGTHESDRNKESSDQTGINISGFENKISYVVQSLKEYEGKWLLFDDSEVKVTEEKDFLNSLSPS
chain 2: not shown
  Km (Ub-AMC deubiquitination assay, USP1/UAF1 complex alone, no DNA): decreasing the Km from 0.79 µM to 0.33 µM
  Km (Ub-AMC deubiquitination assay, USP1/UAF1 complex with fork DNA): decreasing the Km from 0.79 µM to 0.33 µM
